Experimental data from article PMC3699631, “Posttranslational Modifications of the Histone 3 Tail and Their Impact on the Activity of Histone Lysine Demethylases In Vitro” (PLoS ONE, 2013).

Target: T1, human cc-KDM4A (Homo sapiens, UniProt O75164)
T1 construct: Truncated constructs of KDM4A and KDM4C containing only the catalytic cores (cc-KDM4A/cc-KDM4C); made in house
T1 sequence (O75164 1-350 limits assumed): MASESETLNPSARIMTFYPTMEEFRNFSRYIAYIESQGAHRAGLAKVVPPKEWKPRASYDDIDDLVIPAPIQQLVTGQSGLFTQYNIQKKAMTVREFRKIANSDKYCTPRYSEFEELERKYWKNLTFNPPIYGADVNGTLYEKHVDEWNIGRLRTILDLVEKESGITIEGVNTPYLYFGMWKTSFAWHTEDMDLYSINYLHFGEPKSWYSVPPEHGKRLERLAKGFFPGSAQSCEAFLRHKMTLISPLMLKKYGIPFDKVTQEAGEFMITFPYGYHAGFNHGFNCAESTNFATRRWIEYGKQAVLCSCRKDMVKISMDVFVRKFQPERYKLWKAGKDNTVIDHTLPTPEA
Assay: FDH-assay enzyme kinetics of H3 peptide demethylation, truncated KDM4A
Type: biochemical
Parameters: key to K m / k cat / k cat /K m: 0 means no demethylation could be detected
Conditions: cc-KDM4A; for K m / k cat / k cat /K m / demethylation / catalytic activity (in words): FDH-assay; for K m: 50 mM HEPES (pH 7.5), 50 mM NaCl, 50 µM FeSO4, 500 µM α-KG, 500 µM ascorbate, 2 mM NAD, substrate 10–1000 µM, NADH fluorescence 15–30 minutes; for K m / k cat / k cat /K m: triplicate; for k cat / k cat /K m: pH 7.5; for k cat: NADH fluorescence; for demethylation / catalytic activity (in words): compared to H3(1–24)K9me3 where a change is stated
Procedure: The enzyme kinetics were measured using a Formaldehyde DeHydrogenase Assay (FDH-Assay) and the demethylation of substrates was confirmed when possible by MALDI-TOF-MS, see File S1 for details. The test solution contained 50 mM HEPES (pH 7.5), 50 mM NaCl, 50 µM FeSO4, 500 µM α-KG, 500 µM ascorbate, 2 mM NAD, approximately 0.05 unit of FDH and e.g. 4.88 µM KDM4C (enzyme concentration varied between batches). The reference solution was comprised of the same except substrate. The assay was initiated by adding various concentrations of H3 peptide substrates e.g. H3(1–24)K9me3 (10–1000 µM) and the increase in NADH fluorescence was measured over 15–30 minutes in 30 second intervals. Data analysis and kinetic values were obtained using programs Excel and GraphPad Prism® 5.0. For details, see File S1.
The standard deviations for k cat/K m were calculated using the statistic law of propagation of errors. Standard errors for Michaelis-Menten Kinetics were automatically given in GraphPad Prism®, with a 95% confidence interval. All enzyme kinetic curves were done in triplicate unless otherwise stated.
Test for activity of enzyme using the fluorescence FDH assay, determination of Vmax and Km of enzymes with substrate, expression and purification of cc-KDM4A and cc-KDM4C software and parameters for the FDH coupled assay, see Lohse et al.^21
The standard deviations for kcat/ Km were calculated using the statistic law of propagation of errors. Standard errors for Michaelis-Menten Kinetics were automatically given in GraphPad Prism®, with a 95 % confidence interval. All enzyme kinetic curves were done in triplicate unless otherwise stated.

[1] = SD by propagation of errors, unit: min^−1 * µM^−1 * 10^3

| Substance | K m | k cat | k cat /K m [1] | demethylation / catalytic activity (in words) | k cat /K m (figures and text) | fold increase in k cat/K m (compared to H3(1–24)K9me3) |
| --- | --- | --- | --- | --- | --- | --- |
| H3(1–24)K9me3T11(ph): H3(1–24)K9me3 with phosphorylation of threonine 11 | 0 | 0 | 0 | no detectable turnover |  |  |
| H3(1–24)K9me3: truncated histone tail, 24 first amino acids from the N-terminus of H3, trimethylated lysine 9; control peptide | 131±16 | 1.1±0.04 | 8.4±1.1 |  | 8.4±1.1 min^-1 * μM^-1 * 10^3 |  |
| H3(1–24)K9me2: truncated histone tail, 24 first amino acids from the N-terminus of H3, dimethylated lysine 9 | Below detection | Below detection | Below detection | could not be detected |  |  |
| H3(1–24)K4me3K9me3: bis-tri-methylated substrate, trimethylated K4 in combination with H3K9me3 | 82±11 | 1.1±0.04 | 13.4±1.9 |  | 13±2 min^-1 * μM^-1 * 10^3 | 2 fold |
